Our source for the Kd values is publication PMC9674830 (2022).

Sequences and labels used below:
B1: C-terminal domain of subunit 1 of the general transcription regulator TFIIF (RAP74-CTD) (domain or fragment)
chain: GDVQVTEDAVRRYLTRKPMTTKDLLKKFQTKKTGLSSEQTVNVLAQILKRLNPERKMINDKMHFSLKE

As usually defined, the Kd is a measure of binding affinity in units of concentration. Lower therefore signals a tighter complex.

Positions of bridges follow the written chain, without caps; N, C: chain ends. Non-standard residues stand in square brackets, D forms with d. No end group written: not given here. pentenylalanine = pentenylalanine, unnatural amino acid di-substituted at Cα, crosslinked by ring-closing metathesis

One experiment deals with B1. Description: ITC.
Consider KKPGASLAALQELQLLQLLQELQAAQAAKKY (designed binder) [peptide δ], for which the Kd was determined as 256 µM.

The next experiment concerns the target B1. Description: NMR.
KKPGASASW[pentenylalanine]QLF[pentenylalanine]EEQAAQAAKK (staple 10-14) [peptide γ_(Stpl)]: the Kd was 202 µM.

As for KKPGASAAAAQEAQLAQLAQELQAAQAAKKY [peptide δ_(ctrl)], the dissociation constant Kd is above 1000 µM.

SAAASSSWHTLFTAEEGQLYG [AR-WHTLF peptide]: the Kd was above 1000 µM.

KKPGASAAAAQE[pentenylalanine]QLA[pentenylalanine]LAQELQAAQAAKKY (staple 13-17) [peptide δ_(Stpl)]: the dissociation constant (Kd) is above 1000 µM.

KKPGASLAALQALQALQALQALQAAQAAKKY [peptide (P3-7)3] displayed a Kd above 1000 µM.

In the case of KKPGASLSWLQLFQEEQAAQAAKK (designed binder) [peptide γ], binding was characterised by a dissociation constant (Kd) of 626 µM.

The molecule KKPGASLAALQALQALQAAQAAKKY [peptide (P3-7)2] had a Kd above 1000 µM.

A further experiment concerns the target γCtrl. Description: NMR.
Consider B1, for which the Kd is above 1000 µM.
